How the values were obtained:
rat cardiac myocytes = assay: Agonist-stimulated hypertrophy of cultured neonatal rat ventricular myocytes; assay type: cell-based
Procedure: [^3H] leucine incorporation was determined as previously described 74.
For histological analysis, the mice were sacrificed and LV tissue was obtained at 7 days after TAC. Tissue was embedded in OCT compound (Miles, Elkhart, Ind.) and snap-frozen in liquid nitrogen. Tissue slices (5 μm in thickness) were prepared. Tissue sections were stained with hematoxylin and eosin or with Masson trichrome. The myocyte cross sectional area was calculated by measuring 200 cells per section. To determine sarcomeric F-actin organization, cultured myocytes were stained with FITC-conjugated phalloidin (Sigma, St. Louis, Mo.).

HUVECs [1] = assay: Tube formation assay, HUVECs on Matrigel; assay type: cell-based, human; conditions: adiponectin 30 μg/ml, VEGF 20 ng/ml, 18 h
Procedure: The formation of vascular-like structures by HUVECs on growth factor-reduced Matrigel (Becton Dickinson) was performed as previously described^28. Twenty-four-well culture plates were coated with Matrigel according to the manufacturer's instructions. […] The degree of tube formation was quantified by measuring the length of tubes in 3 randomly chosen fields from each well using the angiogenic activity quantification program (Kurabo, Osaka, Japan). […]

HUVECs [2] = assay: Migration assay (modified Boyden chamber); assay type: cell-based, human; conditions: adiponectin 30 μg/ml, VEGF 20 ng/ml, 4 h
Procedure: Migration activity was measured using a modified Boyden chamber assay. Serum-starved cells were trypsinized and resuspended in EGM-2 with 0.5% FBS. Cell suspension (250 μl, 2.0×10^4 cells/well) were added to the transwell fibronectin-coated insert (6.4 mm diameter, 3.0 μm pore size, Becton Dickinson, Franklin Lakes, N.J.). Then 750 μl of EGM-2 with 0.5% FBS supplemented with adiponectin (30 μg/ml), VEGF (20 ng/ml) or bovine serum albumin (BSA) (30 μg/ml) were added to lower chamber and incubated for 4 h. Migrated cells on the lower surface of the membrane were fixed, stained with Giemsa stain solution and eight random microscopic fields per well were quantified. All assays were performed in triplicate.

Akt (Ser 473) = assay: Western blot, Akt phosphorylation in HUVECs; assay type: cell-based, human; conditions: adiponectin 30 μg/ml, time course
Procedure: (§1) Human umbilical vein endothelium cells (HUVECs) were cultured in endothelial cell growth medium-2 (EGM-2, San Diego, Calif.). Before each experiment, cells were placed in endothelial cell basal medium-2 (EBM-2, San Diego, Calif.) with 0.5% fetal bovine serum (FBS) for 16 h for serum-starvation. Experiments were performed by the addition of the indicated amount of mouse recombinant adiponectin, VEGF or vehicle for the indicated lengths of time. In some experiments, HUVECs were infected with adenoviral constructs encoding dominant-negative AMPKα2^28, dominant-negative AKT1^19 or green fluorescence protein (GFP) at a multiplicity of infection (MOI) of 50 for 24 h. In some experiments, HUVECs were pretreated with LY294002 (10 μM) or vehicle for 1 h before stimulation with adiponectin. Cell lysates were resolved by SDS-PAGE. The membranes were immunoblotted with the indicated antibodies at a 1:1000 dilution followed by the secondary antibody conjugated with horseradish peroxidase (HRP) at a 1:5000 dilution. ECL-PLUS Western Blotting Detection kit (Amersham Pharmacia Biotech, Piscataway, N.J.) was used for detection.

ERK (Thr 202/Tyr 204) [3] = assay: Western blot, ERK phosphorylation in HUVECs; assay type: cell-based, human; conditions: adiponectin 30 μg/ml, time course
Procedure: Human umbilical vein endothelium cells (HUVECs) were cultured in endothelial cell growth medium-2 (EGM-2, San Diego, Calif.). Before each experiment, cells were placed in endothelial cell basal medium-2 (EBM-2, San Diego, Calif.) with 0.5% fetal bovine serum (FBS) for 16 h for serum-starvation. Experiments were performed by the addition of the indicated amount of mouse recombinant adiponectin, VEGF or vehicle for the indicated lengths of time. In some experiments, HUVECs were infected with adenoviral constructs encoding dominant-negative AMPKα2^28, dominant-negative AKT1^19 or green fluorescence protein (GFP) at a multiplicity of infection (MOI) of 50 for 24 h. In some experiments, HUVECs were pretreated with LY294002 (10 μM) or vehicle for 1 h before stimulation with adiponectin. Cell lysates were resolved by SDS-PAGE. The membranes were immunoblotted with the indicated antibodies at a 1:1000 dilution followed by the secondary antibody conjugated with horseradish peroxidase (HRP) at a 1:5000 dilution.

eNOS (Ser 1179) = assay: Western blot, eNOS phosphorylation in HUVECs; assay type: cell-based, human; conditions: adiponectin 30 μg/ml
Procedure: as §1

[4] = system: cornea neovascularization; assay: Rabbit corneal angiogenesis assay; assay type: in vivo, New Zealand white rabbits; conditions: day 7
Procedure: Rabbit corneal assay was performed with minor modification as previously described^33. Male New Zealand white rabbits weighing 3.0-3.9 kg were used. Two pockets, about 2×3 mm size and 5 mm apart, were surgically prepared in the cornea extending toward a point 2 mm from the limbus. Hydron pellets, which contain indicated amount of adiponectin, VEGF (100 ng) or PBS and enables the slow release of it^34, were implanted into the pocket. On day 7 after surgery, eyes were photographed and cornea neovascularization was examined in a single blind manner. The angiogenic activity was evaluated on the basis of the number and growth rate of newly formed capillaries. An angiogenic score was calculated (vessel density×distance from limbus)^32. A density value of 1 corresponded to 0-25 vessels per cornea, 2 from […], 3 from 50-75, 4 from 75-100 and 5 for >100 vessels.

[5] = system: CD31-positive cells in Matrigel plugs; assay: Mouse angiogenesis assay (Matrigel plug); assay type: in vivo, C57BL mice; conditions: adiponectin 100 μg/ml in plug, subcutaneous, 14 days
Procedure: The formation of new vessels in vivo was evaluated by Matrigel plug assay as described previously^28. For these experiments, 400 μl of Matrigel containing adiponectin (100 μg/ml) or vehicle was injected subcutaneously into the abdomen of C57BL mice. Mice were sacrificed 14 days after the injection. The Matrigel plugs with adjacent subcutaneous tissues were carefully recovered by en bloc resection, fixed in 4% paraformaldehyde, dehydrated with 30% sucrose, and embedded in OCT compound (GTI Microsystems, Tempe, Ariz.) in liquid nitrogen. Immunohistostaining for CD31 (PECAM-1: Becton Dickinson) were performed on adjacent frozen sections. Primary antibody was used at a 1:50 dilution followed by incubation of secondary antibody (HRP-conjugated anti-rat IgG at a 1:100 dilution). The AEC Substrate Pack (Biogenex, San Ramon, Calif.) was used for detection. CD31-positive capillaries were counted in 4 randomly chosen low-power (×100) microscopic fields.

ERK (Thr 202/Tyr 204) [6] = assay: Western blot, ERK phosphorylation in cultured cardiac myocytes; assay type: cell-based, rat
[7] = system: AMPK (Thr 172 of the α subunit); assay: Western blot, AMPK phosphorylation in cultured cardiac myocytes; assay type: cell-based, rat; conditions: adiponectin 30 μg/ml, time course
[8] = system: AMPK (Thr 172 of α subunit); assay: Western blot, AMPK phosphorylation in HUVECs; assay type: cell-based, human; conditions: adiponectin 30 μg/ml
Procedure: as §1

endothelial cells = assay: Cell-wounding assay (unpublished data); assay type: cell-based
[9] = adiponectin 30 μg/ml pretreatment, Pro 2 μM, NE 1 μM, 48 hours

Question: `N#CC(=C(/N)Sc1ccccc1N)/C(C#N)=C(\N)Sc1ccccc1N` [U0126, reference compound] was tested. Which “reduction of αAR-induced hypertrophy” value (rat cardiac myocytes; p<0.01 vs. control) did it give?
Answer: 82.1±7.8%

Question: For VEGF [reference compound], which “formation of capillary-like tubes (tube length)” value (HUVECs [1]) is on record?
Answer: a trend toward increased tube length in the VEGF-treated cultures relative to adiponectin, but this was not statistically significant

Question: And the HUVEC migration (HUVECs [2])?
Answer: a trend toward greater migration with VEGF compared to adiponectin, but this was not statistically significant

B1: adiponectin: Recombinant histidine-tagged mouse adiponectin (amino acids 15-247) expressed in bacteria; adipocyte specific cytokine (protein, UniProt Q15848 19-244, looked up)
Adiponectin: ETTTQGPGVLLPLPKGACTGWMAGIPGHPGHNGAPGRDGRDGTPGEKGEKGDPGLIGPKGDIGETGVPGAEGPRGFPGIQGRKGEPGEGAYVYRSAFSVGLETYVTIPNMPIRFTKIFYNQQNHYDGSTGKFHCNIPGLYYFAYHITVYMKDVKVSLFKKDKAMLFTYDQYQENNVDQASGSVLLHLEVGDQVWLQVYGEGERNGLYADNDNDSTFTGFLLYHDTN
Question: How did the “formation of capillary-like tubes (tube length)” value (HUVECs [1]) turn out when B1 was run?
Answer: promoted the formation of capillary-like tubes in a manner similar to VEGF

Question: And the Akt phosphorylation (Akt (Ser 473))?
Answer: time-dependent increase in Akt phosphorylation

Question: And the “phosphorylation of ERK” value (ERK (Thr 202/Tyr 204) [3])?
Answer: no effect on the phosphorylation of ERK

Question: What about the eNOS protein levels (eNOS (Ser 1179)) of the same molecule?
Answer: no effect on eNOS protein levels

Question: And the “eNOS phosphorylation at Ser 1179” value (eNOS (Ser 1179); time course)?
Answer: time-dependent increase in eNOS phosphorylation

Question: And the “stimulatory effect on corneal neovascularization relative to VEGF” value ([4]; adiponectin 1 μg and 10 μg vs VEGF 100 ng)?
Answer: comparable with that of VEGF

Question: What about the “neovascularization in corneal implants” value ([4]; pellets with adiponectin 1 μg and 10 μg) of the same molecule?
Answer: markedly accelerated compared with controls

Question: What about the HUVEC migration (HUVECs [2]) of the same molecule?
Answer: significantly stimulated HUVEC migration

Question: What about the “density of CD31-positive cells in Matrigel plugs” value [5] of the same molecule?
Answer: significantly higher density of CD31-positive cells compared with controls

Question: And the “αAR-stimulated ERK phosphorylation” value (ERK (Thr 202/Tyr 204) [6]; adiponectin 30 μg/ml pretreatment, Pro 2 μM, NE 1 μM)?
Answer: suppressed

Question: What about the “AngII-stimulated ERK phosphorylation” value (ERK (Thr 202/Tyr 204) [6]; data not shown) of the same molecule?
Answer: suppressed AngII-stimulated ERK phosphorylation

Question: And the “ERK phosphorylation, agent alone” value (ERK (Thr 202/Tyr 204) [6]; without αAR stimulation)?
Answer: no effect on ERK phosphorylation

Question: And the “αAR-stimulated increase in protein synthesis ([3H] leucine incorporation)” value (rat cardiac myocytes; [9])?
Answer: prevented

Question: What about the “αAR-stimulated re-organization of sarcomeric actin” value (rat cardiac myocytes; [9]) of the same molecule?
Answer: prevented

Question: What about the AngII-stimulated myocyte hypertrophy (rat cardiac myocytes; data not shown) of the same molecule?
Answer: suppressed

Question: What about the “αAR-stimulated increase in myocyte size” value (rat cardiac myocytes; pretreatment, then Pro 2 μM and NE 1 μM for 48 hours) of the same molecule?
Answer: prevented

Question: What about the “actin organization, agent alone” value (rat cardiac myocytes; without αAR stimulation) of the same molecule?
Answer: no effect

Question: And the “myocyte size, agent alone” value (rat cardiac myocytes; without αAR stimulation)?
Answer: no effect

Question: What about the “protein synthesis, agent alone” value (rat cardiac myocytes; without αAR stimulation) of the same molecule?
Answer: no effect

Question: What about the “phosphorylation of AMPK” value [7] of the same molecule?
Answer: stimulated the phosphorylation of AMPK in cultured cardiac myocytes in a time-dependent manner

Question: And the “time of maximal AMPK phosphorylation” value [8]?
Answer: 15 min

Question: What about the “phosphorylation of AMPK” value ([8]; time course) of the same molecule?
Answer: enhanced the phosphorylation of AMPK in a time-dependent manner

Question: What about the “endothelial migration in cell-wounding assay” value (endothelial cells) of the same molecule?
Answer: induced the endothelial migration

Source: US20070213263A1, “Methods And Compositions Using Adiponectin For Treatment Of Cardiac Disorders And For Stimulation Of Angiogenesis” (The Trustees of Boston University, priority 2003, published 2007)
